IntAct's records for PubMed 16614222

B1: Phospholipase D alpha 1 (Arabidopsis thaliana (Mouse-ear cress)), Q38882 (parent)
chain: MAQHLLHGTLHATIYEVDALHGGGVRQGFLGKILANVEETIGVGKGETQLYATIDLQKARVGRTRKIKNEPKNPKWYESFHIYCAHLASDIIFTVKDDNPIGATLIGRAYIPVDQVINGEEVDQWVEILDNDRNPIQGGSKIHVKLQYFHVEEDRNWNMGIKSAKFPGVPYTFFSQRQGCKVSLYQDAHIPDNFVPRIPLAGGKNYEPQRCWEDIFDAISNAKHLIYITGWSVYAEIALVRDSRRPKPGGDVTIGELLKKKASEGVRVLLLVWDDRTSVDVLKKDGLMATHDEETENFFRGSDVHCILCPRNPDDGGSIVQSLQISTMFTHHQKIVVVDSEMPSRGGSEMRRIVSFVGGIDLCDGRYDTPFHSLFRTLDTVHHDDFHQPNFTGAAITKGGPREPWHDIHSRLEGPIAWDVMYNFEQRWSKQGGKDILVKLRDLSDIIITPSPVMFQEDHDVWNVQLFRSIDGGAAAGFPESPEAAAEAGLVSGKDNIIDRSIQDAYIHAIRRAKDFIYVENQYFLGSSFAWAADGITPEDINALHLIPKELSLKIVSKIEKGEKFRVYVVVPMWPEGLPESGSVQAILDWQRRTMEMMYKDVIQALRAQGLEEDPRNYLTFFCLGNREVKKDGEYEPAEKPDPDTDYMRAQEARRFMIYVHTKMMIVDDEYIIIGSANINQRSMDGARDSEIAMGGYQPHHLSHRQPARGQIHGFRMSLWYEHLGMLDETFLDPSSLECIEKVNRISDKYWDFYSSESLEHDLPGHLLRYPIGVASEGDITELPGFEFFPDTKARILGTKSDYLPPILTT

Variants of: B1
Details: with xlg3_arath XLG3, Q9C516

Effect of a mutation on the interaction, decreasing interaction:
K564A
E563A
F565A
